Laboratory results: patent US20140086936

Target: hemagglutinin (HA0) of influenza A/Puerto Rico/8/34 (PR8) virus, P03452

B1: Recombinant purified human matriptase (amino acids 596-855) (protein)
chain: GSDEKDCDCGLRSFTRQARVVGGTDADEGEWPWQVSLHALGQGHICGASLISPNWLVSAAHCYIDDRGFRYSDPTQWTAFLGLHDQSQRSAPGVQERRLKRIISHPFFNDFTFDYDIALLELEKPAEYSSMVRPICLPDASHVFPAGKAIWVTGWGHTQYGGTGALILQKGEIRVINQTTCENLLPQQITPRMMCVGFLSGGVDSCQGDSGGPLSSVEADGRIFQAGVVSWGDGCAQRNKPGVYTRLPLFRDWIKENTGV
cleavage of HA0 to HA1, Western blot: matriptase was able to cleave viral HA
